This assay concerns the target Cetux-probe (cetuximab conjugated with the C-probe). The experiment in a line: cell-based or functional assay.

Here are results for 2 substances from patent EP4782837A1.

As to cathepsin B (enzyme), the fold increase of Cetux-probe fluorescence on enzyme treatment (37°C, 1 hour) was 24 fold. Under “papain (from UniProt P00784 134-345) (enzyme)” stands 13.5 fold.
